Assays:
[1] = target: T1, murine ALK (Table 18, 'mouse ALK binding') (mouse, UniProt P97793 19-1042, limits assumed); assay: ELISA on purified mouse ALK or flow cytometry on Neuro-2a cells
T1 construct: either purified mouse ALK antigen coated in ELISA or endogenous ALK on Neuro-2a cells
Method: Purified mAbs were evaluated for their ability to bind murine ALK by solid-state ELISA, or flow cytometry on Neuro-2a cells that express low levels of endogenous murine ALK.
Luminescence data were plotted as a function of the log-transformed anti-ALK antibody concentration and fit to a 4-parameter non-linear regression equation.
Alternatively, Neuro-2a cells were incubated with 10-100 nM of anti-ALK antibodies, followed by a fluorescently-labeled secondary antibody. Mean fluorescence intensity (MFI) of live-gated cells treated with anti-ALK antibodies was divided by background, determined using the secondary antibody alone.

[2] = target: T2, human ALK on the surface of NB1 cells (human, UniProt Q9UM73 21-1620); assay: flow cytometry titration on NB1 cells, steady state
T2 construct: ALK of NB1 cells; also called cell surface hALK; NB1 (human)
T2 sequence (Q9UM73 21-1620): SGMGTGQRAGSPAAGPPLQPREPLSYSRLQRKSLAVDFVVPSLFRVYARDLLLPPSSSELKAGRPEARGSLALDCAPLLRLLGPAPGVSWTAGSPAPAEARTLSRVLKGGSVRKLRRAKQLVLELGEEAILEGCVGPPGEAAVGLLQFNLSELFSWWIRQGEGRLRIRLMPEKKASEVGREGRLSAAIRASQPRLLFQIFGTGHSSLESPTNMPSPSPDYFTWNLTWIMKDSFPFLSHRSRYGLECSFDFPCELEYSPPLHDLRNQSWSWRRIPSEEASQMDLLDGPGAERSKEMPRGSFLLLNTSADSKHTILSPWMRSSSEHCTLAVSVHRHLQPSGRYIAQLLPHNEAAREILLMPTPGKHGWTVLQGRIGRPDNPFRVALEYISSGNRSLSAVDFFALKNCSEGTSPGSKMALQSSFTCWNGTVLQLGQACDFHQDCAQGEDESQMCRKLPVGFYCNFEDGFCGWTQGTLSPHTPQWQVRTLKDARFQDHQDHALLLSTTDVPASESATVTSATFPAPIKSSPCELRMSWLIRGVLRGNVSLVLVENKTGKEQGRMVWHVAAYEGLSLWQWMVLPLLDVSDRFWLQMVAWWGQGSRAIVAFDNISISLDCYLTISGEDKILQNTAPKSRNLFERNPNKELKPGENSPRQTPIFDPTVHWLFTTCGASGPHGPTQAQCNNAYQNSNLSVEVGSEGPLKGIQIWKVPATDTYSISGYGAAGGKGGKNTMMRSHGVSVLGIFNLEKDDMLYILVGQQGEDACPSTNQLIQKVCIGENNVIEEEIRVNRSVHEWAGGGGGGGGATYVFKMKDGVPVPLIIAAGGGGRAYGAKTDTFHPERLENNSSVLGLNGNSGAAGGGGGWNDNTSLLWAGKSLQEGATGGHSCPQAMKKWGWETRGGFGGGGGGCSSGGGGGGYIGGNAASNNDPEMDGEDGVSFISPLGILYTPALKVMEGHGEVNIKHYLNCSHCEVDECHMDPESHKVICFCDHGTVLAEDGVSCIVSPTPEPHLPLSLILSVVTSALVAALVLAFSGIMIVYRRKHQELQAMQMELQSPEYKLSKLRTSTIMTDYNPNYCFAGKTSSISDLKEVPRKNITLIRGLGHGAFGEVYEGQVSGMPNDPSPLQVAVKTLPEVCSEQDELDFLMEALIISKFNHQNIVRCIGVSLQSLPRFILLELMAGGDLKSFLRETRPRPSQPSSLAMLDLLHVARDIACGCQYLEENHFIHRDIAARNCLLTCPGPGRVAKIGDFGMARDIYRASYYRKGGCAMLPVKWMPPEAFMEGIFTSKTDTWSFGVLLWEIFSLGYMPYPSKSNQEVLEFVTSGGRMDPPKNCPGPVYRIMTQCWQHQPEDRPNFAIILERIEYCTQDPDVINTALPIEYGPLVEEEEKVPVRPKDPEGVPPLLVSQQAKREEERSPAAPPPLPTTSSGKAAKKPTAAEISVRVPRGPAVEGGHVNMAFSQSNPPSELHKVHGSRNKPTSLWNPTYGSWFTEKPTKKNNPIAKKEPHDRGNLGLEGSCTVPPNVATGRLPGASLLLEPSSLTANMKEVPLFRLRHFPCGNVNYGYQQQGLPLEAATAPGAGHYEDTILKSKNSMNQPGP
Method: KD was determined by flow cytometry. Titration of each antibody on NB1 cells for 2-4 hours at 4° C. was followed by incubation with a fluorescently-labeled secondary antibody. The normalized mean fluorescent intensity […] shown as “% Max binding” was plotted as a function of antibody concentration.
Flow cytometry was utilized to measure the affinity at steady state (KD) with which different ALK antibodies bind to ALK on the surface of NB1 cells (FIG. 3). Titration of each antibody on NB1 cells for 2-4 hours at 4° C. was followed by incubation with a fluorescently-labeled secondary antibody. The normalized mean fluorescent intensity (MFI) shown as “% Max binding” was plotted as a function of antibody concentration. The data were fit to a one site binding isotherm using GraphPad Prism, from which affinity values were derived.

[3] = target: T3, purified ALK protein (BLitz, Table 20) (Homo sapiens (Human), UniProt Q9UM73 19-1038, limits assumed); assay: BLI (BLitz), mAb on Protein A tip, purified ALK in solution
T3 construct: also called purified ALK proteins
In short: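 Humanized anti-ALK mAbs loaded at 0.5 mg/mL on Protein A tips; after stable baseline, purified ALK protein at 70 μg/mL added. Kinetic traces fit to a single binding site model to give monovalent KD.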

[4] = target: human ALK, purified (hALK) (human, UniProt Q9UM73 19-1038, limits assumed); assay: BLI (BLitz), estimated monovalent affinity, single dose kinetics
Sequence of human ALK, purified (hALK) (Q9UM73 other isoform, or with tags, fused parts or gaps limits assumed): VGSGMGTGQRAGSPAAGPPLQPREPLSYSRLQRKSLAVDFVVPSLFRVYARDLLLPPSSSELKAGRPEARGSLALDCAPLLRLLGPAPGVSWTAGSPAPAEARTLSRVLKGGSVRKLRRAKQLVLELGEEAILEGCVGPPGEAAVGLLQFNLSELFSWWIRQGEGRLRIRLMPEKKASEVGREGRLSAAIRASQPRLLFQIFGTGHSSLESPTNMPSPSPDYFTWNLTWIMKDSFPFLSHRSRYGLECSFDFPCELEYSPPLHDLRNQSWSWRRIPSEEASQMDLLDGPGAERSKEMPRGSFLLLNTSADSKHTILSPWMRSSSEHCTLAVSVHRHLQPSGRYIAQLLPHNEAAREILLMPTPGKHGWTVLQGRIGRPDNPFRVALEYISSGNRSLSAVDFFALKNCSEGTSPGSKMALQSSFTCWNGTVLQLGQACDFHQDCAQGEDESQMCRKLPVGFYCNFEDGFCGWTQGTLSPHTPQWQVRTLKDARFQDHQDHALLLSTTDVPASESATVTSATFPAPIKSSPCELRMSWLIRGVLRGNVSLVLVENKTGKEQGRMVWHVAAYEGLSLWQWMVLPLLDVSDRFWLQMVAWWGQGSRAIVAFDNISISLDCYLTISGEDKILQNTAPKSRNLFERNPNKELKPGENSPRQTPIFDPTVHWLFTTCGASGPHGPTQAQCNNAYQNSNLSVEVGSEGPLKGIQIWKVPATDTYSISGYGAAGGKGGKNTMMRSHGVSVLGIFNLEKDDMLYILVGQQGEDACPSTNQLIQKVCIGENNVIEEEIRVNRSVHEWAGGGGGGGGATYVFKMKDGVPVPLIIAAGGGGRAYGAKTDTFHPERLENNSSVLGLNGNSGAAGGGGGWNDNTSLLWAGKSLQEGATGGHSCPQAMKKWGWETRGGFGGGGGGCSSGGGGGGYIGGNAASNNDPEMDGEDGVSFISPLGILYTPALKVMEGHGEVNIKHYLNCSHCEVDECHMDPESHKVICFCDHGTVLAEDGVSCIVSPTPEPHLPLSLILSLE
Method: (§1) Kinetic measurements of the monovalent affinity of the 96 humanized ALK antibody variants (Ab351-Ab446) were collected. Affinity ranking was performed using a BLitz® System (ForteBio, Menlo Park, Calif.). Humanized anti-ALK antibodies were immobilized at 0.5 mg/mL using Protein A tips. Once baseline stability was ensured, purified ALK proteins at 70 μg/mL were added. The resulting kinetic data were fit to a single binding site equation, from which the quoted monovalent KD values were derived.
(§2) KD values for both NB1 (human) cells and Neuro2a (mouse) cells were also determined.

[5] = target: mouse ALK, purified (mALK) (mouse, UniProt P97793 19-1042); assay: as above
Sequence of mouse ALK, purified (mALK) (P97793 19-1042 limits assumed): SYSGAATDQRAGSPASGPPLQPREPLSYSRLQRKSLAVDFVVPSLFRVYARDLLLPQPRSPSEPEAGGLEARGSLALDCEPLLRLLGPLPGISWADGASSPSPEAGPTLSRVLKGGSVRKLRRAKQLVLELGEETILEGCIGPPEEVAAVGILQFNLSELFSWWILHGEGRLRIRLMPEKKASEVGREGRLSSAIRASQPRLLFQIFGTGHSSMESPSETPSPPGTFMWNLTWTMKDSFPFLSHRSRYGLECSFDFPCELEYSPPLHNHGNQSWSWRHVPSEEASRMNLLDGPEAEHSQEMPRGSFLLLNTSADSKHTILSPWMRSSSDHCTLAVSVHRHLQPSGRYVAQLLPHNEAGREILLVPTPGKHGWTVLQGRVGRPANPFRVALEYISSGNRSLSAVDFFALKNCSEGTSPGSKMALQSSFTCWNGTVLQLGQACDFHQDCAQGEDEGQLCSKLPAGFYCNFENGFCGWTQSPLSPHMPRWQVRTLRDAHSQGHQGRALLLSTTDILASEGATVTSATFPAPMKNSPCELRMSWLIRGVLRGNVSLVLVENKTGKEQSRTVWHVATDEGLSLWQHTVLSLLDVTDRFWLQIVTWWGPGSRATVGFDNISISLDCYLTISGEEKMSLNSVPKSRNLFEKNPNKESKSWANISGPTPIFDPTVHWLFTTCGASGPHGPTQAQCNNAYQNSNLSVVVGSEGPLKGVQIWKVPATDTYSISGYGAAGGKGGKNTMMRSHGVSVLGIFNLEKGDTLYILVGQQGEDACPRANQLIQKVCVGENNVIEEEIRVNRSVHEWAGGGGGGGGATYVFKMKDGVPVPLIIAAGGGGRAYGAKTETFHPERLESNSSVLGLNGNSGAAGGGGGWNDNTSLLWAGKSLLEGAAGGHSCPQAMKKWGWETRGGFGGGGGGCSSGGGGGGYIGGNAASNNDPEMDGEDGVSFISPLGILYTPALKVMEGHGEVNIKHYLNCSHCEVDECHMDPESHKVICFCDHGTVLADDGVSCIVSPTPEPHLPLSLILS
Method: as §1, §2

[6] = target: rat ALK, purified (rALK) (rat, UniProt P97793 19-1038 (mouse entry), limits assumed); assay: as above
Sequence of rat ALK, purified (rALK) (P97793 other isoform, or with tags, fused parts or gaps limits assumed): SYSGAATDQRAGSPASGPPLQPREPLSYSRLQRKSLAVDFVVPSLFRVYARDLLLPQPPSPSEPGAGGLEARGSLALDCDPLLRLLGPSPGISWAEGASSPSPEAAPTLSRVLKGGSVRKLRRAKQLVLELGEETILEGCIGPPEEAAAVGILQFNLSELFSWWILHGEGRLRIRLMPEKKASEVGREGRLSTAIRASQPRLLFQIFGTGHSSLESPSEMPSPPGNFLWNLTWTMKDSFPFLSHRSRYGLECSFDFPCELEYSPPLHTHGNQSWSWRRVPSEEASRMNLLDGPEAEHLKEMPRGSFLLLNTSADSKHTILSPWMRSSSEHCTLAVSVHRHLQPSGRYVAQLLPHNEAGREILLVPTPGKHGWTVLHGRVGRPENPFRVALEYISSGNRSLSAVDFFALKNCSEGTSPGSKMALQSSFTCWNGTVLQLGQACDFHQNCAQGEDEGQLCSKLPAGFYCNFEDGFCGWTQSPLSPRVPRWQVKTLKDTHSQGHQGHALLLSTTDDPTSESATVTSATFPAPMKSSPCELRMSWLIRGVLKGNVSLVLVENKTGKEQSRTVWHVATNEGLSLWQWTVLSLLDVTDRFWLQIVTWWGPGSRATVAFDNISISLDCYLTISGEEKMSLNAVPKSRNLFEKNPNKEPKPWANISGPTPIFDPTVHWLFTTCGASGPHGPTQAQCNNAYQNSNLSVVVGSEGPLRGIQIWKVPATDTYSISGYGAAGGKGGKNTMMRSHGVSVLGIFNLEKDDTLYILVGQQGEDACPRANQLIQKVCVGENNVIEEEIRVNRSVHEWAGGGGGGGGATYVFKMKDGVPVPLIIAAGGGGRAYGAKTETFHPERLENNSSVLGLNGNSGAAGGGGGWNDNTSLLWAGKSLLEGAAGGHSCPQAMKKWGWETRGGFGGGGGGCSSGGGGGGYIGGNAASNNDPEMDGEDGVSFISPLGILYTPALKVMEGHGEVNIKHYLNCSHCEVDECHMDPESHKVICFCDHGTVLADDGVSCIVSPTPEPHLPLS
Method: as §1, §2

T1 sequence (P97793 19-1042 limits assumed): as the sequence (P97793 19-1042 limits assumed) above

B1: Ab331 (antibody, V domains shown)
VH: EVQVVETGGGVVQPGKSLEITCATSGLTFSTAWMYWVRQSSDRRLEWIARIKDKSNNFASDYVESVRGRFTISRDDSRSSVYLQMNNLKEEDTATYYCTTSYGYAWGQGVMVTVSS
VL: DIQMTQSPSSMSASLGDRITITCQASQDIGNYLIWFQQKPGKSPRPLIYYATNLANGVPSRFSGSRSGSEYSLTITSLESEDMADYHCLQYKQHLTFGSGTKLEIER
notes: rodent hybridoma mAb
binding result [1]: no binding
Kd [2]: 2.5 nM

B2: Ab352 (antibody, V domains shown)
VH: EVQLVQSGPEVKKPGTSVKLSCKASGYTFTSYWMHWVRQARGQRLEWIGYIKPSSGYTKYNQKFKDRATLTADKSTSTAYMELSSLRSEDTAVYYCARDYYGSSSWFAYWGQGTLVTVSS
VL: EIVMTQSPAFLSVTPGEKVTITCKASQNVGTNVAWYQQKPDQAPKALIYSASYRYSGVPSRFSGSGSGTDFTLTISSLEAEDAATYYCQQYNSYPYMYTFGQGTKLEIK
notes: humanized
Kd [3]: 77.2 nM
Kd [4]: 105 nM
Kd [5]: 205 nM
Kd [6]: 24 nM

B3: Ab400 (antibody, V domains shown)
VH: EVQLVQSGPEVKKPGTSVKLSCKASGYTFTSYWMHWVRQARGQRLEWIGYIKPSSGYTKYNQKFKDRATLTADKSTSTAYMELSSLRSEDTAVYYCARDYYGSSSWFAYWGQGTLVTVSS
VL: EIVMTQSQATMSTSVGERATLSCKASQNVGTNVAWYQQKPGQSPKALIYSASYRYSGVPARFSGSGSGTDFTLTISSVEPEDFAVYYCQQYNSYPYMYTFGQGTKLEIK
notes: humanized
Kd [6]: 18 nM

B4: Ab355 (antibody, V domains shown)
VH: QVQLVQSGAEVAKPGASVKLSCKASGYTFTSYWMHWVKQAPGQGLEWIGYIKPSSGYTKYNQKFKDKATLTADKSTSTAYMELRSLRSDDTAVYYCARDYYGSSSWFAYWGQGTLVTVSS
VL: EIVMTQSPAFLSVTPGEKVTITCKASQNVGTNVAWYQQKPDQAPKALIYSASYRYSGVPSRFSGSGSGTDFTLTISSLEAEDAATYYCQQYNSYPYMYTFGQGTKLEIK
notes: humanized
Kd [3]: 86.5 nM
Kd [4]: 103 nM
Kd [5]: 150 nM
Kd [6]: 31 nM

B5: Ab402 (antibody, V domains shown)
VH: EVQLVQSGAEVKKPGTSVKLSCKASGYTFTSYWMHWVRQARGQRLEWIGYIKPSSGYTKYAQKFQERVTLTADKSTSTAYMELSSLRSEDTAVYYCARDYYGSSSWFAYWGQGTLVTVSS
VL: EIVMTQSQATMSTSVGERATLSCKASQNVGTNVAWYQQKPGQSPKALIYSASYRYSGVPARFSGSGSGTDFTLTISSVEPEDFAVYYCQQYNSYPYMYTFGQGTKLEIK
notes: humanized
Kd [6]: 24 nM

B6: Ab403 (antibody, V domains shown)
VH: QVQLVQSGAEVAKPGASVKLSCKASGYTFTSYWMHWVKQAPGQGLEWIGYIKPSSGYTKYNQKFKDKATLTADKSTSTAYMELRSLRSDDTAVYYCARDYYGSSSWFAYWGQGTLVTVSS
VL: EIVMTQSQATMSTSVGERATLSCKASQNVGTNVAWYQQKPGQSPKALIYSASYRYSGVPARFSGSGSGTDFTLTISSVEPEDFAVYYCQQYNSYPYMYTFGQGTKLEIK
notes: humanized
Kd [6]: 22 nM

B7: Ab326 (antibody, V domains shown)
VH: QVQLQQSGAELAKPGASVKLSCKASGYTFTSYWMHWVKQRPGQGLEWIGYIKPSSGYTKYNQKFKDKATLTADKSSSTAYMQLSSLTYEDSAVYYCARDYYGSSSWFAYWGQGTLVTVSA
VL: DIVMTQSQRFMSTSVGDRVSVTCKASQNVGTNVAWYQQKPGQSPKALIYSASYRYSGVPDRFTGSGSGTDFTLTISNVQSEDLAEYFCQQYNSYPYMYTFGGGTKLEIKR
notes: rodent hybridoma mAb
Kd [4]: 69 nM
Kd [5]: 120 nM
Kd [6]: 35 nM
Kd [2]: 0.35 nM

B8: Ab322 (antibody, V domains shown)
VH: QVQLQQSGAELAKPGASVKLSCKASGYTFTNYWMHWVKQRPGQGLEWIGYINPSSGYTKYNQKFKDKATLTADKSSSTAYMQLSSLTYEDSAVYYCARDYYGSSSWFAYWGQGTLVTVSA
VL: DIVMTQSQRFMSTSVGDRVSVTCKASQNVGTNVAWYQQKPGQSPKALIYSASYRYSGVPDRFTGSGSGTDFTLTVSNVQSEDLAEYFCQQYNSYPYMYTFGGGTKLEIKR
notes: rodent hybridoma mAb
binding result [1]: no binding
Kd [2]: 0.5 nM

From patent US20200157236A1 (CELLDEX THERAPEUTICS, published 2020)
